# Assay results: publication PMC10754010, “CRISPR/Cas9‐based genome editing of 14 lipid metabolic genes reveals a sporopollenin metabolon ZmPKSB‐ZmTKPR1‐1/‐2 required for pollen exine formation in maize”
# T1: ZmMYB84 (MBP fusion) (Zea mays, UniProt B4FQD3 1-356)
# T1 sequence: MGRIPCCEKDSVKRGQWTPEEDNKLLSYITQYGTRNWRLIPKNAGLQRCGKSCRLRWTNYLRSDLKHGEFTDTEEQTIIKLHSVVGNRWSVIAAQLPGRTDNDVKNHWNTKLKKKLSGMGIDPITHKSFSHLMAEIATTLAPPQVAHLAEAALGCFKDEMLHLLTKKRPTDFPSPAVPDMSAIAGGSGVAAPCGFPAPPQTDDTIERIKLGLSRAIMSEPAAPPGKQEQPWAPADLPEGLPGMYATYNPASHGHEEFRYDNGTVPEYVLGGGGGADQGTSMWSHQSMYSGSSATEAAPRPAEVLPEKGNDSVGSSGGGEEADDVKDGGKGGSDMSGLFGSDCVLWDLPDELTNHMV
# Target: T1, ZmMYB84 (MBP fusion)
# Test: EMSA; EMSA conditions not stated (as in Hou et al., 2023)
# Conditions: protein: recombinant; tags: MBP (ZmMYB84 fused to the C-terminus of MBP; vector pMCSG7); label: biotin; 5' overhang 1 nt on each strand (so in the source)
row,Binder,binding result
1,ZmTKPR1-2bio promoter probe (dsDNA) DNA 1: ATTGCAAATCTACCCCCAACCAACCCAGCTTTGTATCTG DNA 2: GCAGATACAAAGCTGGGTTGGTTGGGGGTAGATTTGCAA,binds
2,ZmTKPR1-1bio promoter probe (dsDNA) DNA 1: TAGGAAGGAAGAAGGTTCCTGCAATGCATGTAAGGTTGGTAATTCATGCCTT DNA 2: AAAGGCATGAATTACCAACCTTACATGCATTGCAGGAACCTTCTTCCTTCCT,binds
